Target: maize CDK (cyclin-dependent protein kinase) from immature ear extract

B1: GST-ZMWEE1 (glutathione S-transferase ZMWEE1 fusion protein, from pGEX2Tzmwee1, made in E. coli) (protein)
chain: CTPDYITPEMPQVANEFDDDDKENIPCPKSPEKSANPRSKRYRTDCSPKAREVTDFSFDHQITPVLFDSLTRDDSEEEQPKQPALEKRGGYVSQSAVALRCRVMPPPCVKNPYLNTDPCIDAAVYGGRQCNSAVFSPSIGGNGLSRYRTDFHEIEKIGYGNFSVVFKVLNRIDGCLYAVKRSIKQLHNDMERRQAVKEVQAMAALGSHENIVRYFTSWFENEQLYIQMELCDRCLSMNRNQPVKRGEALELLYQICKGLDFMHERGIAHLDVKPDNIYVRNGIYKLGDFGCATLVNRSLAIEDGDSRYMPPEMLNDKYEHLDKVDIFSLGAAVYELIRGTPLPESGSHFTSIREGKIALLPGCPMQFQSLIKSMMDPDPVRRPSAKEILRHPSFDKLHKASSK
CDK activity (histone H1 kinase activity) of CDK adsorbed by p13^suc1: GST-ZMWEE1, with or without pre-incubation, inhibited CDK activity | histone H1-kinase activity in crude immature ear extract: GST-ZMWEE1 inhibits the histone H1-kinase activity in the extract

From patent US20030041342
